Where no end group is shown, it is not given here.

In general, EC50 (read off the curve) refers to the midpoint of the concentration-response curve. A high value points to weaker potency.

The target in assay [1] is T1, human macrophage migration-inhibitory factor (MIF) (human, UniProt P14174 2-115, limits assumed, Alexa-Fluor 488 or Monolith NT-647 (MST-Red) label where so named).
T1 construct: Biologically active recombinant MIF prepared as reported previously; also called Alexa-MIF; Alexa-488-MIF
Put plainly: fluorescence spectroscopic titration, apparent Kd; Fluos-ngm titrated with MIF. Here is the method:
(§1) Peptides were dissolved and analyzed by MALDI-TOF-MS; ^{[a]}Peptides were synthesized with free amino-N-terminal and amidated C-terminal; ^{[b]}monoisotopic molar mass with an additional hydrogen [M + H]⁺; ^{[c]} App. Kds, are means (±SD) from three independent titration experiments which were performed in aqueous […], pH 7.4, containing 1% HFIP.
(§2) Fluorescence spectroscopy. Fluorescence spectroscopic titrations were performed as described^{28, 32}. Fluorescence spectra were recorded using a JASCO FP-6500 fluorescence spectrophotometer. […] Apparent KD values (app. KD) were calculated assuming a 1/1 binding model³².

For assay [2], the target named is T1, human macrophage migration-inhibitory …. Put plainly: fluorescence spectroscopic titration, apparent Kd; Alexa-488-MIF titrated with ngm. Here is the method: as §1, §2
Assay [3] has the same target. In words: fluorescence spectroscopic titration; row labelled msR4M-L5 but with the K-K-K linker. The method, then: as §1, §2
For assay [4] the target is unchanged. Put plainly: cell-based or functional assay.
The target is the same in assay [5]. Put plainly: fluorescence spectroscopic titration.
Assay [6] shares this target. Put plainly: fluorescence spectroscopic titration of Fluos-ngm-LD3 with increasing MIF [panel B]. Here is the method:
as §2

Assay [7] has the same target. In words: fluorescence spectroscopic binding assay.

T1 sequence (P14174 2-115 limits assumed): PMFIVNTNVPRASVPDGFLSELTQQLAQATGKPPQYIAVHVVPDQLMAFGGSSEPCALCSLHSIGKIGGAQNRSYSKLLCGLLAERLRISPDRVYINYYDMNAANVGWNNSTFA

For the molecule WYFGNFLCKKKKDRFYPNDLW-NH2 (designed binder, not fully specified; printed as WYFGNFLCK-KKK-DRFYPNDLW, also called ngm-LK3; msR4M-K3) [msR4M-LK3 ([ECL1(102-110)]-K-K-K-[ECL2(187-195)])], the Kd in assay [1] is 36.4 nM; in assay [2], 44.8 nM; in assay [3] it was 30 to 40 nM.
With WYFGNFLCKDDDDRFYPNDLW-NH2 (designed binder, not fully specified; printed as WYFGNFLCK-DDD-DRFYPNDLW, also called ngm-LD3; msR4M-D3) [msR4M-LD3 ([ECL1(102-110)]-D-D-D-[ECL2(187-195)])], in assay [4], the “IC50 of inhibition of MIF-mediated monocyte migration (3D, single cell tracking)” value was found to be 18.4 nM. Also, in assay [4], the “IC50 of inhibition of MIF-triggered Dil-oxLDL uptake (foam cell assay)” value amounted to 1.4 nM. Also, the Kd in assay [5] is 33 nM; in assay [1], 36 nM; in assay [2] it was 246 nM. Also, the “EC50 (read off the curve)” value in assay [6] is ~30 nM.
As to ICDRFYPNDLW-NH2 [ECL2 fragment 185-195], the “inhibitory capacity in the Dil-LDL foam cell assay” value in assay [4] was ~80 % of full-length msR4M-L1. In assay [7], this molecule showed a Kd of 324 nM.
For NWYFGNFLCK-NH2 [ECL1 fragment 101-110], in that order: ~80 % of full-length msR4M-L1 and 51 nM.
Consider WYFGNFLCKRRRDRFYPNDLW-NH2 (designed binder, not fully specified; printed as WYFGNFLCK-RRR-DRFYPNDLW, also called ngm-LR3; msR4M-R3) [msR4M-LR3 ([ECL1(102-110)]-R-R-R-[ECL2(187-195)])], for which the Kd was 22 nM in assay [5], 16.8 nM in assay [1] and 110 nM in assay [2].
For the molecule ANWYFGNFLCK-NH2 [ECL1 fragment 100-110], the “inhibitory capacity in the Dil-LDL foam cell assay” value in assay [4] was ~80 % of full-length msR4M-L1. This molecule yielded a Kd in assay [7] of 215 nM.
For DRFYPNDLW-NH2 [ECL2(187-195)], in that order: ~80 % of full-length msR4M-L1 and 286 nM.
For WYFGNFLCK-NH2 [ECL1(102-110)], in that order: ~80 % of full-length msR4M-L1 and 80 nM.

(Values after patent US20230242616A1 (LUDWIG MAXIMILIANS UNIVERSIT T M NCHEN, published 2023).)
